Source: publication PMC5498027

Target: taxol-stabilized microtubules polymerized from bovine brain tubulin (bovine) (UniProt Q6B856)
Experiment: not given

human Kif5A, first 560 amino acids, wild type, fused to EGFP and a C-terminal 6xHIS tag, sequence (Q12840 1-560): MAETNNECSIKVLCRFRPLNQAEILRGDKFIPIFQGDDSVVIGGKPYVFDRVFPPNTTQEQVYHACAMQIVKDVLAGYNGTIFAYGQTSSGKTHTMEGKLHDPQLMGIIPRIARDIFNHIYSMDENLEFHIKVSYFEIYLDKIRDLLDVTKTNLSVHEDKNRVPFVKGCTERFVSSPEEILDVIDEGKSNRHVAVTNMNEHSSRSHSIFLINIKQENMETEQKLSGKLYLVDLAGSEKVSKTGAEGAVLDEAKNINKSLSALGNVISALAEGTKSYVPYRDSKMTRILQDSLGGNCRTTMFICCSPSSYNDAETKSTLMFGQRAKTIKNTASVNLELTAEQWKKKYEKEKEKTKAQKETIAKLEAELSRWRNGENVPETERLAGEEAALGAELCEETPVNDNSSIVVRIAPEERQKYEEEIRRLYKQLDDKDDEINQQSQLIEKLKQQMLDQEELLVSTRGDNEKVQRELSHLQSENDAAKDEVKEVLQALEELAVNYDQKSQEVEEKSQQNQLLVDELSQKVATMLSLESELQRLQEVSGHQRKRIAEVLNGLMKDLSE

| Substance | -fold increase of the ATPase rate by MTs (MT-stimulated over basal; malachite green phosphate assay, microtubules from 2 uM tubulin) [fold] |
| --- | --- |
| human Kif5A, first 560 amino acids, S202N, fused to EGFP and a C-terminal 6xHIS tag (from UniProt Q12840 1-560) (domain or fragment) | 5.4 |
| human Kif5A, first 560 amino acids, S203C, fused to EGFP and a C-terminal 6xHIS tag (from UniProt Q12840 1-560) (domain or fragment) | 23.5 |
| human Kif5A, first 560 amino acids, R204Q, fused to EGFP and a C-terminal 6xHIS tag (from UniProt Q12840 1-560) (domain or fragment) | 10.6 |
| human Kif5A, first 560 amino acids, wild type, fused to EGFP and a C-terminal 6xHIS tag (from UniProt Q12840 1-560) (domain or fragment) | 33.2 |

Results, then the substance that gave them:

| -fold increase of the ATPase rate by MTs (MT-stimulated over basal; malachite green phosphate assay, microtubules from 2 uM tubulin) [fold] | Substance |
| --- | --- |
| 42.6 | human Kif5A, first 560 amino acids, M198T, fused to EGFP and a C-terminal 6xHIS tag (from UniProt Q12840 1-560) (domain or fragment) |
| 6.2 | human Kif5A, first 560 amino acids, E251K, fused to EGFP and a C-terminal 6xHIS tag (from UniProt Q12840 1-560) (domain or fragment) |

Target: taxol-stabilized microtubules polymerized from bovine brain tubulin (bovine) (UniProt Q6B856)
Experiment: co-sedimentation; microtubule pelleting assay as with ATP but with 5 mM AMPPNP: 1 uM Kif5A, tubulin 0-8 uM (WT) or 0-20 uM (mutants), 20 uM taxol, room temperature 15 min; fraction Kif5A bound by western blot densitometry

| percent bound at saturation [%] | Substance |
| --- | --- |
| 100 | human Kif5A, first 560 amino acids, wild type, fused to EGFP and a C-terminal 6xHIS tag (from UniProt Q12840 1-560) (domain or fragment) |
